Assay results published in publication PMC5458211, “Mitochondrial VDAC1-based peptides: Attacking oncogenic properties in glioblastoma” (Oncotarget, 2017).
Non-standard residues stand in square brackets, D forms with d. No end group written: not given here.

Molecular target: T1, Hexokinase II (HK-II), purified (UniProt P52789 1-917, fluorescently labeled using the NanoTemper protein-labeling Kit BLUE)
T1 construct: hexokinase II (HK-II)
T1 sequence (looked up): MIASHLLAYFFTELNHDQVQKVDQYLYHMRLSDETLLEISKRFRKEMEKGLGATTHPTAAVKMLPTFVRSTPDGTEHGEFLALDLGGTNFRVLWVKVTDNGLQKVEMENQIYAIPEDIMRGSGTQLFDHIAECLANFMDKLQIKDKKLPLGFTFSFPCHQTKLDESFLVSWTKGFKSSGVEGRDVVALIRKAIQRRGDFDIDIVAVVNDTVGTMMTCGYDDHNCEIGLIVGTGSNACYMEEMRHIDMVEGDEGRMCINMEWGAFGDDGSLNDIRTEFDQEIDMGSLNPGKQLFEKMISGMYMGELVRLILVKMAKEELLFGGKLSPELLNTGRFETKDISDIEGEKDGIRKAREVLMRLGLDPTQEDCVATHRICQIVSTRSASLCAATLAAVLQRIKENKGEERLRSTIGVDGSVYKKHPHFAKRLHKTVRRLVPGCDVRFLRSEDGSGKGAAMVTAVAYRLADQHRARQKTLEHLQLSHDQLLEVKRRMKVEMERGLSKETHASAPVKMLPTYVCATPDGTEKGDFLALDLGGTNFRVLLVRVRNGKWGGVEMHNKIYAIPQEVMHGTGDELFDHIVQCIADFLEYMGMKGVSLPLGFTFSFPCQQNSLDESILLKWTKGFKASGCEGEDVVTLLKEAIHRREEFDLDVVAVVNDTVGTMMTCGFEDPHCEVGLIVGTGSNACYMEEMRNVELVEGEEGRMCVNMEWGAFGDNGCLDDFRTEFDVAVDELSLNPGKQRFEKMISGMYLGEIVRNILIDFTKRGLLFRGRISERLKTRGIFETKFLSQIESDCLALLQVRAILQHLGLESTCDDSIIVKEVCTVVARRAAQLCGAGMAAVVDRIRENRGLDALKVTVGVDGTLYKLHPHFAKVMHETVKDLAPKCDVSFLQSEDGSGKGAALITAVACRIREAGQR
Experiment: MST; HK-II (100 nM), fluorescently labelled (NanoTemper Kit BLUE), incubated with Tf-D-LP4 (1-100 μM) for 20 min; MST-grade glass capillaries, Monolith-NT115
Settings: both partners purified

Kd: 16.6 µM
B1: Tf-D-LP4 (peptide)
peptide: HAIYPRHSWTWE[dK][dK][dL][dE][dT][dA][dV][dN][dL][dA][dW][dT][dA]G[dN][dS][dN]KWTWK
notes: L-amino acids; amino acids added to form a loop-shaped tryptophan zipper (N-terminal half); amino acids added to form a loop-shaped tryptophan zipper (C-terminal half); 34 residues in all; the VDAC1-derived stretch is made of D-amino acids, the rest of L-amino acids; also called VDAC1-based peptide; Tf-D-LP4 peptide; source: synthetic peptide (GL Biochem, Shanghai, >95% purity), dissolved in DMSO
